From patent US20130315910A1 (Xencor, published 2013) come the findings set out here.

Sequences and labels used below:
T1: mFcγRIV
T1 construct: also called mouse FcγRIV; not shown: C-terminal His and GST tags (named only on our card)
T1 chain: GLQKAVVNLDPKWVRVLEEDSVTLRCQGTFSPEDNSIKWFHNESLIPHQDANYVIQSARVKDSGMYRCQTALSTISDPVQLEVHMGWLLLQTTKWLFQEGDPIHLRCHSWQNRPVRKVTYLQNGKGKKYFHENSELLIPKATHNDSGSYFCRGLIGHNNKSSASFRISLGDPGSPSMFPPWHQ

T2: mFcγRIIb (Mus musculus, UniProt P08101)
T2 construct: extracellular region, C-terminal His- and GST-tag; also called mouse FcγRII
T2 sequence (receptor extracellular region, looked up): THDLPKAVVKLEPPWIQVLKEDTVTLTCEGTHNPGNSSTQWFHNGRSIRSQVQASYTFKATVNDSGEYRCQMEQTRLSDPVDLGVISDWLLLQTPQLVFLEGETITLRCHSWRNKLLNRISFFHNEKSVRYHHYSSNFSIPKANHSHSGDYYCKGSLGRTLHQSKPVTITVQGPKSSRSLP

T3: cynoFcγRIIb (Macaca fascicularis, UniProt A0A140HDP4)
T3 construct: extracellular region, C-terminal His- and GST-tag; also called cynomolgus monkey FcγRIIb
T3 sequence (receptor extracellular region): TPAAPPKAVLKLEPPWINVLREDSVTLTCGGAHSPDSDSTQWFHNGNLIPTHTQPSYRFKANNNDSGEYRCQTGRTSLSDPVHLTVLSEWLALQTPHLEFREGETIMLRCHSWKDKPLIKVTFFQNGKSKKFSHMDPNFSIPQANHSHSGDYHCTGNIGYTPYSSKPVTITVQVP

T4: human FcγRIIa (131H), His- and GST-tagged (human, UniProt P12318 34-217)
T4 construct: also called H131 FcγRIIa; HIIa; not shown: 6xHis and GST tags of the pTT5 vector
T4 sequence (looked up): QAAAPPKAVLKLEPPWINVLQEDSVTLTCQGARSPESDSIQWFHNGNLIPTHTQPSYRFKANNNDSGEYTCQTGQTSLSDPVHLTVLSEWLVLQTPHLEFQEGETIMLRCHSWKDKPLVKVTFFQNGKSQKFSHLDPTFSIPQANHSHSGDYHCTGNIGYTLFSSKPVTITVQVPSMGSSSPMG

T5: human FcγRIIa (131R), His- and GST-tagged (human, UniProt P12318 34-217)
T5 construct: Expressed in HEK293T cells, purified by nickel chromatography; also called R131 FcγRIIa; not shown: 6xHis and GST tags of the pTT5 vector
T5 sequence (looked up): T4 sequence (looked up) with H134R

T6: human FcγRIIb receptor protein (R&D Systems) (human, UniProt P31994 46-217)
T6 construct: Bought protein injected over captured antibody in Biacore; also called CD32b
T6 sequence (looked up): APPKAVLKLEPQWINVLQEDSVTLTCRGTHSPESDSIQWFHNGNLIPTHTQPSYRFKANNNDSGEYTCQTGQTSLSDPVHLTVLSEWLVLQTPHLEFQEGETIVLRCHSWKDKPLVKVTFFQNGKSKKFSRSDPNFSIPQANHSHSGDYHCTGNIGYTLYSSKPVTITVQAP

B1: A327N (antibody, human IgG1, kappa)
heavy: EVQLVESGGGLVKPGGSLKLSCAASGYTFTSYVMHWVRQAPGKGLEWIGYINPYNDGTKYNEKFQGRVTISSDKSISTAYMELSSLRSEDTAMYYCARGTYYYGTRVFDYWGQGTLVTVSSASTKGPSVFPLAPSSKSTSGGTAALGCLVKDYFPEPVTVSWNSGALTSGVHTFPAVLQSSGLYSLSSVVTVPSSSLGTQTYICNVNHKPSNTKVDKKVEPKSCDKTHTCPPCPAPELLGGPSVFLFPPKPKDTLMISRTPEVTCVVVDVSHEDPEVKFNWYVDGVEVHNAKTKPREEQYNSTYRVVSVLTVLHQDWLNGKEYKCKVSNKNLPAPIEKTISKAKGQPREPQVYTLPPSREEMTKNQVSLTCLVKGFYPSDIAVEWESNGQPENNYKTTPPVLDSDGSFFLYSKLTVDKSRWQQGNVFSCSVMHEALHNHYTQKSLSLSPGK
light: DIVMTQSPATLSLSPGERATLSCRSSKSLQNVNGNTYLYWFQQKPGQSPQLLIYRMSNLNSGVPDRFSGSGSGTEFTLTISSLEPEDFAVYYCMQHLEYPITFGAGTKLEIKRTVAAPSVFIFPPSDEQLKSGTASVVCLLNNFYPREAKVQWKVDNALQSGNSQESVTEQDSKDSTYSLSSTLTLSKADYEKHKVYACEVTHQGLSSPVTKSFNRGEC
notes: HuAM4G7 anti-CD19 IgG1 (m1) with this Fc substitution, EU index; copies: 2 + 2
B2: L235N (antibody, human IgG1, kappa)
heavy: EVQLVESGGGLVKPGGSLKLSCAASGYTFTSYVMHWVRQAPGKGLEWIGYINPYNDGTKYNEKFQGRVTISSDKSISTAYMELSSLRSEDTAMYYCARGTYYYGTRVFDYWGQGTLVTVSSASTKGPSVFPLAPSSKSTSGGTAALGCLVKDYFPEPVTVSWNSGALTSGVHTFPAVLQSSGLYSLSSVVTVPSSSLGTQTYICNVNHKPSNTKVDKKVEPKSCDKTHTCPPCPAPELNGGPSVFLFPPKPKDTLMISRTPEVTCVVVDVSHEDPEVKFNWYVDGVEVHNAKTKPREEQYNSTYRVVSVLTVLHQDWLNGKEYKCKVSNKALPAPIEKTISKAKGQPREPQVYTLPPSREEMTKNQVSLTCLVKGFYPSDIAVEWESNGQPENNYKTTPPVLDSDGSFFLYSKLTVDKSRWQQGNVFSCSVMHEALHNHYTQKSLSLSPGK
light: B1 light
notes: as for B1
B3: S298D (antibody, human IgG1, kappa)
heavy: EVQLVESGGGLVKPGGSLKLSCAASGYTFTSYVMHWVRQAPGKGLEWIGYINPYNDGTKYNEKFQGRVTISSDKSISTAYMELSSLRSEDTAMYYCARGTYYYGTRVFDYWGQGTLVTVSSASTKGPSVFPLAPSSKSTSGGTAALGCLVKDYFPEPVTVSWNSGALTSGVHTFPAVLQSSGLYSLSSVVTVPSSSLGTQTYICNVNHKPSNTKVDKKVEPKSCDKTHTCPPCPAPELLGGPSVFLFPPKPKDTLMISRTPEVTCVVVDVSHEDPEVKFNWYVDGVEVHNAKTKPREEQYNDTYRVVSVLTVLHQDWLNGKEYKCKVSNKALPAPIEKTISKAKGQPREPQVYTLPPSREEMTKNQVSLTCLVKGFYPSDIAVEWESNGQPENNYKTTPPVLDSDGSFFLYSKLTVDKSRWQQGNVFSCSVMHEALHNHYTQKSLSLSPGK
light: B1 light
notes: as for B1
B4: L234N (antibody, human IgG1, kappa)
heavy: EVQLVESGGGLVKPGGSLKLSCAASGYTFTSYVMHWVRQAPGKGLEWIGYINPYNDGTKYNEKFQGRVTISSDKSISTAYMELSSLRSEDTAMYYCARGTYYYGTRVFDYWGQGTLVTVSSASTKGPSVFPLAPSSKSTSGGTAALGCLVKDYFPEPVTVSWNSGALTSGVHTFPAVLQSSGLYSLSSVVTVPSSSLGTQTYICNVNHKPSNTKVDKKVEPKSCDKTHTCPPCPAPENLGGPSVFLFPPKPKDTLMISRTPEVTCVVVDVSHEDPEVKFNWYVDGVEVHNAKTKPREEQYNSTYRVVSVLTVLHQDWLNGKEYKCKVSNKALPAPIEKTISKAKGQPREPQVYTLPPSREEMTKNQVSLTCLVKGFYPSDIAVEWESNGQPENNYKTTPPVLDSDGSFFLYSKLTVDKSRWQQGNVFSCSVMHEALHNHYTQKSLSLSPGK
light: B1 light
notes: as for B1
B5: L234D/S267E (antibody, human IgG1, kappa)
heavy: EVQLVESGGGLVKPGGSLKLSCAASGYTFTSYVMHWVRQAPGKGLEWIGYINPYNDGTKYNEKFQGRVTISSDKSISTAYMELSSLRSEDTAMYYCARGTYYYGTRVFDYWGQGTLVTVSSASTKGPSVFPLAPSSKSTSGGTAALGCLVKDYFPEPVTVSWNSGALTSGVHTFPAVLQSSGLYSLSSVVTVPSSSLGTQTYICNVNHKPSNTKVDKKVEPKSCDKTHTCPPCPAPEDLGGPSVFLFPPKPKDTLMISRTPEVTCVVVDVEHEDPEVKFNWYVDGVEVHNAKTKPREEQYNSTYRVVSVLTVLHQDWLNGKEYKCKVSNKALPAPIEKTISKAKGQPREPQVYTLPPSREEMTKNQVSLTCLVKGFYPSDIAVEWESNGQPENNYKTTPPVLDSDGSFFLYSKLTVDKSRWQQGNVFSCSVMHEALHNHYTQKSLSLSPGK
light: B1 light
notes: HuAM4G7 anti-CD19 IgG1 (m1) with these Fc substitutions, EU index; copies: 2 + 2
B6: S298E (antibody, human IgG1, kappa)
heavy: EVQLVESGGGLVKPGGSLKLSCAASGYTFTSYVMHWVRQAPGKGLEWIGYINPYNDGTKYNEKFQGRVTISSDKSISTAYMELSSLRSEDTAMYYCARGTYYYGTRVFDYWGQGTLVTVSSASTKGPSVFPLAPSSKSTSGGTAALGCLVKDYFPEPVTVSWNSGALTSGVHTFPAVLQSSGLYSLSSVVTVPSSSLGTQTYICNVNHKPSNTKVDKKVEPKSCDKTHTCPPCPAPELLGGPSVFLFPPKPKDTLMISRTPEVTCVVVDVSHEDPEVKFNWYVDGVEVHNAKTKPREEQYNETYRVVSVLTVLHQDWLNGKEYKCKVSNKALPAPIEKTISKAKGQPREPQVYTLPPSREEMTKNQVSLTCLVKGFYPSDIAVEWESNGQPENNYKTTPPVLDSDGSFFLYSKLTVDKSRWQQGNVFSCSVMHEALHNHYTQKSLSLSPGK
light: B1 light
notes: as for B1
B7: A327Q (antibody, human IgG1, kappa)
heavy: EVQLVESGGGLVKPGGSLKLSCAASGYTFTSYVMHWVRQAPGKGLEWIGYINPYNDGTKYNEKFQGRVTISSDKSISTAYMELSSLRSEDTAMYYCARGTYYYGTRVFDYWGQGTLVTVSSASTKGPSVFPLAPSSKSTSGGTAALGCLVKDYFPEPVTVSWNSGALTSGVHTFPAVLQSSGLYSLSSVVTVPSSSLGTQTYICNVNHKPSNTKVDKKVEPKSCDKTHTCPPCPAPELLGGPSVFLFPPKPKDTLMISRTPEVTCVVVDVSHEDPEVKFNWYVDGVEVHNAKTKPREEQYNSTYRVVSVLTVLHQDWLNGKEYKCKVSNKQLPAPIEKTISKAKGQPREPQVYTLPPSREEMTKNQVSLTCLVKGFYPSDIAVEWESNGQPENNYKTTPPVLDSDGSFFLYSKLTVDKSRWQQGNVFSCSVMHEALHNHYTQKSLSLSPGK
light: B1 light
notes: as for B1
B8: G236E/S267E (antibody, human IgG1, kappa)
heavy: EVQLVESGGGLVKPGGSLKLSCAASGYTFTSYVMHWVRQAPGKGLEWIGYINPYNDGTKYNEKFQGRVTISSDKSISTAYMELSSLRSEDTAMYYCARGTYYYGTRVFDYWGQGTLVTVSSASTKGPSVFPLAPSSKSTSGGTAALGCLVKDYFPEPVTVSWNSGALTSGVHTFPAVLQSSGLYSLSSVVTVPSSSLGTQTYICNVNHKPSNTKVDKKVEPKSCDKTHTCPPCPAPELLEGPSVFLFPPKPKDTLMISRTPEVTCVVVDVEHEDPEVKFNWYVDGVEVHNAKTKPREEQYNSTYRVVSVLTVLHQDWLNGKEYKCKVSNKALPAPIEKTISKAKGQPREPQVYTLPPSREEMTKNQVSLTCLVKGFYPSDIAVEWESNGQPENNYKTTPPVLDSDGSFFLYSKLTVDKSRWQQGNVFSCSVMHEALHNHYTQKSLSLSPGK
light: B1 light
notes: as for B5
B9: L235E (antibody, human IgG1, kappa)
heavy: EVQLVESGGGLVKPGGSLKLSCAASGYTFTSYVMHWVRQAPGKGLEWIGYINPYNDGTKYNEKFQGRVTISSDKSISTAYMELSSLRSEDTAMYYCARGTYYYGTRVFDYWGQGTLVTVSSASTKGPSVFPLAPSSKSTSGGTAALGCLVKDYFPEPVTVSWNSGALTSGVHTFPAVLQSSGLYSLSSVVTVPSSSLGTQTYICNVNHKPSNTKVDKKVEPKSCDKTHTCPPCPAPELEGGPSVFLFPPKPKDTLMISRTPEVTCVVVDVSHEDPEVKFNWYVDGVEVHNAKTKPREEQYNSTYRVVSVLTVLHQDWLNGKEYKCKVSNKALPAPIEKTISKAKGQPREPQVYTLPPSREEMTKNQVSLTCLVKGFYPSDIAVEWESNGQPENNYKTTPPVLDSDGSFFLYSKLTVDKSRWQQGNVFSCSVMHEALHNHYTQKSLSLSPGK
light: B1 light
notes: as for B1
B10: L235A (antibody, human IgG1, kappa)
heavy: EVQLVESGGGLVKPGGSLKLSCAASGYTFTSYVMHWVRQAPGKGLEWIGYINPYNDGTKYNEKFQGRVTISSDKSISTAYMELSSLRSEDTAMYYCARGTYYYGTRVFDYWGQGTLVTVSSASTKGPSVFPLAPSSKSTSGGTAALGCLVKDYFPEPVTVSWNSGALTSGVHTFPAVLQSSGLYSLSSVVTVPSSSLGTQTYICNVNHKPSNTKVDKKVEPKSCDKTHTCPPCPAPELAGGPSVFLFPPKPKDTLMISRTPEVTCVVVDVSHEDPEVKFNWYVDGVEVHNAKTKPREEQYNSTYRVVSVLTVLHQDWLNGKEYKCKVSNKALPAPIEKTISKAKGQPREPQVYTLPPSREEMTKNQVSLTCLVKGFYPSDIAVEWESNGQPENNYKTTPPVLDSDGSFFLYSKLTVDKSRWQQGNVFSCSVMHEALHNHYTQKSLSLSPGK
light: B1 light
notes: as for B1
B11: anti-CD19 antibody HuAM4G7 IgG1 S267G (antibody)
heavy: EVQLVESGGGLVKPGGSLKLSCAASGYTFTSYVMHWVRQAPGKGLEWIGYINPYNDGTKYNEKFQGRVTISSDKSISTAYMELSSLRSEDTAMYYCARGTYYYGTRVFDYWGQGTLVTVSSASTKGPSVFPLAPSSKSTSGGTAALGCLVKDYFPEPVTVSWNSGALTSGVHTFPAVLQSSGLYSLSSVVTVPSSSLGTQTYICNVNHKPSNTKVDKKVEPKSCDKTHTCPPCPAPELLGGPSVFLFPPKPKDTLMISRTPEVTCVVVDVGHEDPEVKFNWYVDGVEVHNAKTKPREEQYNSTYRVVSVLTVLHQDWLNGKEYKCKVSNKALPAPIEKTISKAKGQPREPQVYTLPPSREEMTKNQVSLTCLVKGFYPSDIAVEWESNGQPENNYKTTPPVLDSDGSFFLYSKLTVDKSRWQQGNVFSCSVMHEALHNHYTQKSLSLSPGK
light: B1 light
notes: Positions in EU numbering; copies: 2 + 2

Substitutions are numbered along the chain they refer to. Names and notes keep the numbering of the source.
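For Fold vs WT IgG1 (off-rate) in this document: fold improvement over WT IgG1 so higher means slower dissociation than WT.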

T7 sequence (Q8SPW2 17-208): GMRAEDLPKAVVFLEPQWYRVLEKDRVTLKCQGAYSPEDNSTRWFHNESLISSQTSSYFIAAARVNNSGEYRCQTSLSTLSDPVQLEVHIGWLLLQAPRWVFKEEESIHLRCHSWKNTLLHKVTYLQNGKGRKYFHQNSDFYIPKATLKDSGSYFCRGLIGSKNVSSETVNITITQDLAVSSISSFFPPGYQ

One assay addresses T7, cynoFcγRIIIa (Macaca fascicularis, UniProt Q8SPW2).
T7 construct: extracellular region, C-terminal His- and GST-tag; also called cynomolgus monkey FcγRIIIa
In words: SPR. A general note: In SPR one partner is held on a chip, and binding of the other changes the refractive index at the surface.
With B1, the “Fold vs WT IgG1 (off-rate)” value is 0.313 fold.
In the case of B2, the “Fold vs WT IgG1 (off-rate)” value stood at 0.351 fold.
For B3, the “Fold vs WT IgG1 (off-rate)” value is 0.309 fold.
On the same count and under the same terms, to B4 belongs 0.371 fold.
With B5, the “Fold vs WT IgG1 (off-rate)” value is 0.116 fold.
B6: the “Fold vs WT IgG1 (off-rate)” value stood at 0.046 fold.
Same read-out and setting: to B7 belongs 0.223 fold; to B8, 0.327 fold; to B9, 0.367 fold.
Turning to B10, the “Fold vs WT IgG1 (off-rate)” value was 0.53 fold.

The target in a further assay is T1, mFcγRIV. In words: SPR.
As for B1, the “Fold vs WT IgG1 (off-rate)” value came out at 1.16 fold.
Still for that read-out and setting: in the case of B2 it was 0.241 fold; in that of B3, 0.618 fold.
For B4, the “Fold vs WT IgG1 (off-rate)” value came out at 0.2 fold.
Still for that read-out and setting: in the case of B6 it was 0.136 fold.
The same measure, in the same setting: to B7 belongs 0.361 fold.
Same read-out and setting: to B9 belongs 0.857 fold.
Take B10: the “Fold vs WT IgG1 (off-rate)” value turned out to be 0.496 fold.

A further assay has as its target T2, mFcγRIIb. In words: SPR.
B1: the “Fold vs WT IgG1 (off-rate)” value is 0.643 fold.
Take B5: the “Fold vs WT IgG1 (off-rate)” value came out at 1.04 fold.

A further assay has as its target T3, cynoFcγRIIb. In words: SPR.
B5: the “Fold vs WT IgG1 (off-rate)” value worked out at 0.495 fold.

The target in a further assay is T8, human FcγRI receptor protein (R&D Systems) (human, UniProt P12314 16-288).
T8 construct: also called soluble FcγRI; solFcγRI
T8 sequence (P12314 16-288 limits assumed): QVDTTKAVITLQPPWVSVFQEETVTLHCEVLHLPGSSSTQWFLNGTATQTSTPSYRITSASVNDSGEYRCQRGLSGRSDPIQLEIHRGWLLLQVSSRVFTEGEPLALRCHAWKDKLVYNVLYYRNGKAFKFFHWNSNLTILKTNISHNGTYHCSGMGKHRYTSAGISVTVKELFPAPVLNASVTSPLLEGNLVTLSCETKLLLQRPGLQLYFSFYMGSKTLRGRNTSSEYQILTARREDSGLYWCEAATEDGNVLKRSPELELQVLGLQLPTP
In words: SPR.
With B1, the “Fold vs WT IgG1” value worked out at 0.0279 fold and the dissociation constant (Kd) is 11.8 nM.
For the molecule B11, the Kd was 0.626 nM.
Regarding B5, the “Fold vs WT IgG1” value amounted to 0.0286 fold and the Kd is 11.5 nM.
Consider B10, for which the “Fold vs WT IgG1” value came out at 0.0179 fold and the affinity, expressed as Kd, was 18.4 nM.

In a further assay the target is T4, human FcγRIIa (131H), His- and …. In words: SPR.
For the molecule B1, the binding result is on record as “no binding”.
For the molecule B10, the “Fold vs WT IgG1” value came to 0.0486 fold and the Kd was 13300 nM.

The target of another assay is T9, human FcγRIIIa (158V), His- and GST-tagged (human, UniProt P08637 17-208).
T9 construct: also called V158 FcγRIIIa; VIIIa; not shown: 6xHis and GST tags of the pTT5 vector
T9 sequence (P08637 17-208 F176V): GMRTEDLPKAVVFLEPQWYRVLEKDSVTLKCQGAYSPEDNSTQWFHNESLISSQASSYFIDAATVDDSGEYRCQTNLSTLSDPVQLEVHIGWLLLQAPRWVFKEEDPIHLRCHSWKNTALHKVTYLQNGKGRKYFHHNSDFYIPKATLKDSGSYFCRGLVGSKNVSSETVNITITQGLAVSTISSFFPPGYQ
In words: SPR.
With B1, the binding result is reported as “no binding”.
B5: the “Fold vs WT IgG1” value came out at 0.14 fold and the affinity, expressed as Kd, was 1370 nM.
In the same order, the values of B10 are 0.314 fold and 609 nM.

In a further assay the target is T5, human FcγRIIa (131R), His- and …. In words: SPR.
For B1, the “Fold vs WT IgG1” value amounted to 0.609 fold and binding was characterised by a dissociation constant (Kd) of 1410 nM.
In the same order, the values of B2 are 0.0356 fold and 24100 nM.
Take B3: the “Fold vs WT IgG1” value came out at 1.45 fold and the Kd was found to be 592 nM.
In the case of B4, the binding result is listed as “no binding”.
In turn, B11 gave a dissociation constant (Kd) of 517 nM.
With B5, the “Fold vs WT IgG1” value turned out to be 12.7 fold and the Kd turned out to be 67.7 nM.
Consider B6, for which the binding result is “no binding”.
For B7, the “Fold vs WT IgG1” value came to 0.634 fold and binding was characterised by a dissociation constant (Kd) of 1350 nM.
Turning to B8, the “Fold vs WT IgG1” value was 36.5 fold and binding was characterised by a dissociation constant (Kd) of 23.5 nM.
In the same order, the values of B9 are 0.333 fold and 2580 nM.
In the same order, the values of B10 are 0.166 fold and 5180 nM.

A further assay has as its target T6, human FcγRIIb receptor protein (R&D …). In words: SPR.
On to B1, for which the “Fold vs WT IgG1” value was determined as 0.843 fold and the Kd was found to be 1740 nM.
As to B2, the “Fold vs WT IgG1” value is 0.147 fold and the affinity, expressed as Kd, was 10000 nM.
Consider B3, for which the “Fold vs WT IgG1” value was determined as 0.797 fold and binding was characterised by a dissociation constant (Kd) of 1840 nM.
As to B4, the binding result is “no binding”.
As to B11, the Kd stood at 1450 nM.
Consider B5, for which the “Fold vs WT IgG1” value was 21.7 fold and the affinity, expressed as Kd, was 67.8 nM.
B6: the binding result is recorded as “no binding”.
Take B7: the “Fold vs WT IgG1” value came out at 0.011 fold and binding was put at a Kd of 134000 nM.
In the case of B8, the “Fold vs WT IgG1” value was found to be 11.4 fold and the Kd came out at 129 nM.
For B9 the same measures were 0.55 fold and 2670 nM.
Consider B10, for which the “Fold vs WT IgG1” value came to 0.351 fold and the affinity, expressed as Kd, was 4180 nM.

The target in a further assay is T1, mFcγRIV. Put plainly: SPR, off-rate. How it is done: (§1) Variants were screened for receptor affinity using Biacore™ technology, also referred to as Biacore herein, a surface plasmon resonance (SPR) based technology for studying biomolecular interactions in real time. SPR measurements were performed using a Biacore 3000 instrument (Biacore, Piscataway, N.J.). A protein A/G (Pierce Biotechnology) CM5 biosensor chip (Biacore) was generated using a standard primary amine coupling protocol. All measurements were performed using HBS-EP buffer (10 mM HEPES pH 7.4, 0.15 M NaCl, 3 mM EDTA, 0.005% vol/vol surfactant P20, Biacore). Antibodies at 20 nM or 50 nM in HBS-EP buffer were immobilized on the protein A/G surface and FcγRs were injected. After each cycle, the surface was regenerated by injecting glycine buffer (10 mM, pH 1.5). Data were processed by zeroing time and response before the injection of FcγR and by subtracting appropriate nonspecific signals (response of reference channel and injection of running buffer). Kinetic analyses were performed by global fitting of binding data with a 1:1 Langmuir binding model using BIAevaluation software (Biacore).
(§2) Variant antibodies were tested for their affinity to mouse or cynologous monkey FcγRs using Biacore SPR as described above. Specifically, antibodies were first immobilized on a protein A/G chip to high density, and then followed by injections of the extracellular domain of the mouse or cynologous monkey FcγR of interest. Both association and dissociation phases were tracked in real time using the Biacore technology.
For B5, the binding result is given as “no binding”.
The same measure, in the same setting: in the case of B8 it was “no binding”.

For a further assay, the target named is T2, mFcγRIIb. Put plainly: SPR, off-rate. How it is done:
as §1, §2
In the case of B2, the binding result is “no binding”.
In the case of B3, the binding result is listed as “no binding”.
For the molecule B4, the binding result was “no binding”.
B11: the binding result is recorded as “no binding”.
Same read-out and setting: in the case of B6 it was “no binding”; in that of B7, “no binding”.
Regarding B8, the binding result was “no binding”.
On to B9, for which the binding result is recorded as “no binding”.
With B10, the binding result is given as “no binding”.

The next assay addresses T3, cynoFcγRIIb. In words: SPR, off-rate. How it is done: as §1, §2
As for B1, the binding result is listed as “no binding”.
In the case of B2, the binding result is “no binding”.
Turning to B3, the binding result is “no binding”.
Regarding B4, the binding result is given as “no binding”.
On the same count and under the same terms, in the case of B11 it was “no binding”; in that of B6, “no binding”.
Same read-out and setting: to B7 belongs “no binding”; to B8, “no binding”; to B9, “no binding”.
With B10, the binding result was “no binding”.

Broadly, the Kd is the concentration at which binding is half-saturated. Lower therefore signals tighter binding.
